Assay results taken from the DeepSol protein solubility set.

Assay: soluble on expression in E. coli; label from the status in PepcDB or PDB records

Row | Sequence | soluble on expression in E. coli
1 | MTTLKVKQLANKKGLNILEDSIEINESGVDFQVAHVTEQNGDKWILRIPRRPESMRHALREKEALEIMKKHAAFQVPNWSIFSEELIAYKQLSGFPAATIDIEQQKYVWNFNEKNVPTEYYISLGKVLANVHSLSQQKFNNIGVEILTANELRTSMKQRMNRVKEQYHINQNLWDRWQAWLAEDSFWPSHVGVKHGDIHPGHILIDKKNNVTGLIDWTEVGIGDVSIDFTSHYLLFGKDGLTKLIHSYDNAGGKTWSRMDEHIIELLTTSSITVAEYAQVSGLKDMHEAAIHMLATEC | not soluble
2 | MGSDKIHHHHHHMGASAISQQISKLEQELSIRLLQRNAFGVTPTPAGLAFLKHSQLILRQVNFAIDAAHSARLSGHVSLGFPPTITALIGIPLMKLMSERYPDIRLEIVETLSGNLIQSINSRQLDIAIIFTNEIDKQWSIQPLVREQMYLMARKEVLEKYGLSECIKSGIIQSQQIGDIPLVLPRQRHSLRKLLEHKIGQLNVVYEIDGLHLLMDSLIHLDLASVRPGSACLQEYKHKLQLLKVVDPEVERINYLVSLAEEELSPAALAAKSAIKACVKELIQNQIWPCSEIIL | not soluble
3 | MGSDKIHHHHHHLSVRATISDSKSDFHKEFPYVIPAIYRKLADELLVELHLLSHQKNFKKDSIFSTGLKEVFSKFTSGYKPSEHATKLFDAICNCNGFNPTEINNSSEQLVSNAKSFTKEDLNSFLSKTNNDNKGYDYYSRINAIGIYKLVSEMPLFKEVKEEDLNKEINDISKSLGYQYSRVEKDISMYKSNIEKMKQALEIIALNLKTK | not soluble
4 | MGSDKIHHHHHHMLFCSMNAVRNWYILPVFFITSFISKGQNGALIPDTYDQFFQNYYLINPANTDTAGVILHMGHKSQLGVFRGVRQTYFDANFRIQSNRFNRAHSVGIQLFNNSEGDFFSKNRIYGRYAFDIHLSETYFLSAGIAVGAVSYAFKATQSSAGGSDLAYDGSTGLWVVGRKLKAGISIQQISQGKLSPLGQIFELRRQYNANVSYLFFINPDIQLTTHVWYKYQQHNMHDVQVAAIITLQNLVEFGGNYKYQKGVVLIGGLKDIHIGTSSLSLAMSYSTGILNYLAKGDNAVEVFLTYSR | not soluble
5 | RAAIHDIATPVAIVDEQGRVVNLNAAAEQMLAVDKHEALTEPLNDFLGGDDIATDGGSSRVSIEADGRHREYKVQQTALRDETGTQLGYTVVFQDIT | soluble
6 | DEFQWKGLPVVKSGLDVGGMPTGTRYHRSPAWPEEQPGETHAPAPFGSGDKRYTFSQTEMLVNGLKPYTEPTAGVPPQLLSRAVTHVRSYIETIIGTHRSPVLTYHQACELLERTTSCGPFVQGLKGDYWDEEQQQYTGVLANHLEQAWDKANKGIAPRNAYKLALKDELRPIEKNKAGKRRLLWGCDAATTLIATAAFKAVATRLQVVTPMTPVAVGINMDSVQMQVMNDSLKGGVLYCLDYSKWDSTQNPAVTAASLAILERFAEPHPIVSCAIEALSSPAEGYVNDIKFVTRGGLPSGMPFTSVVNSINHMIYVAAAILQAYESHNVPYTGNVFQVETIHTYGDDCMYSVCPATASIFHTVLANLTSYGLKPTAADKSDAIKPTNTPVFLKRTFTQTPHGIRALLDITSITRQFYWLKANRTSDPSSPPAFDRQARSAQLENALAYASQHGPVMFDTVRQIAIKTAQGEGLVLVNTNYDQALATYNAWFIGGTVPDPVGHTEGTHKIVFEME | soluble
7 | QDFAELQGKWYTIVIAADNLEKIEEGGPLRFYFRHIDCYKNCSEMEITFYVITNNQCSKTTVIGYLKGNGTYETQFEGNNIFQPLYITSDKIFFTNKNMDRAGQETNMIVVAGKGNALTPEENEILVQFAHEKKIPVENILNILATDTCPE | soluble
8 | MDLHELTARLHAIRDRNDWRQFHSPKNLAMAASVEMAELVEIFQWLTEDQSRTLSAEQLEHAGQEVGDIVLYLLLFCGETGLDLEQVVRAKLADCERRFLP | soluble
9 | MGSDKIHHHHHHMNELDIIKIISKNLSYSNGVEKGIGDDCAVFKFENQHLVVTTDMMFKSTHFPSILTPFQIGMRVVTANVSDIAAMCAKPLGMVISMGFDNPKKTFIDEMSKGINFISKEYGCPIAGGDTNKAPELTLSGTAFGITDNPIYRGGIIGEDICITGDVGKVNCALKLLEMKDKGILGNIEFEKTMSEFPRIMKKLAEPKARVKEGLLLNKIITSCCDISDGLSKDLNYTGNFEINSKNLLNSVSREVIEFCEKFDMDLLKTVLNSGEEFELLFTTPDFKKAEEKLKDINSVTKIGKVVESGKTVDGISVELEGYVHKW | not soluble
10 | MSLHTAQKTRKGEHKWAAVVGLEIHAQISSNSKLFSGSQVRFSAPPNSLVSFFDASLPGTLPVLNRRCVEAAVMTGLALNCHINKKSLFDRKHYFYADLPAGYQITQQRLPIAVNGSLIYGVCAGKKQSQVIPKTVRIKQIQLEQDSGKSLHDNLRSQTLIDLNRAGVGLLEVVLEPDMSCGEEAATAVRELQLILQALGTSQANMAEGQLRVDANISVHHPGEPLGVRTEVKNLNSIRFLAKAIDYEIQRQINELENGGEILNETRSFHHKLGCTMSMRDKEGKQDYRFMPEPNLPPLVLYDATSLPAGADPQQVINIDQIRETLPELPSVTREKLVQQYGMLLEHSFTLLNEVGLLEFFQNVIKETRAEPKKVTSWVLNTFLGYLKQQNLAVSESPVTPSALAELLDLLDSRTISSSAAKQVFEELWKREGKTPGQIVSEKQLELMQDQGALEQLCHSVMEAHPQVVMDVKNRNPRAINKLIGLVRKATQSRADPVMIKEILEKKLSLEGHHHHHH | soluble
11 | TVQTQDKVTAMDKDPKVTVDVTGYQWNWKFGYAKVAGELSPTGSDYVGTDEKRQEAAEKTKFDQGGDNPNPINGRSKTDTSYLHFNKIETLGTSEEIPV | not soluble
12 | MRTLYPEITPYQQGSLKVDDRHTLYFEQCGNPHGKPVVMLHGGPGGGCNDKMRRFHDPAKYRIVLFDQRGSGRSTPHADLVDNTTWDLVADIERLRTHLGVDRWQVFGGSWGSTLALAYAQTHPQQVTELVLRGIFLLRRFELEWFYQEGASRLFPDAWEHYLNAIPPVERADLMSAFHRRLTSDDEATRLAAAKAWSVWEGATSFLHVDEDFVTGHEDAHFALAFARIENHYFVNGGFFEVEDQLLRDAHRIADIPGVIVHGRYDVVCPLQSAWDLHKAWPKAQLQISPASGHSAFEPENVDALVRATDGFA | soluble
13 | MGSDKIHHHHHHMRRQANSPSPDPVSTTRPVAWRPTLAKQKGETKHSALTERIIADIDAGVLKPMDRMPTHRDLARELGLSVQTVSLSYKEAERLGYLSGEIGRGTFVKTRVTERAGRMMLDHSPTEVLDLSIIRGVYLDDHENASRTILREMADSDNSGFMRPCRPVAGLDSHRETARTWLGMMGVTAGAERILVTNGAAHGIFLALSCIIRSNDVVLCENLTDHGIIGLSNILGFSLKGLPTDEEGILPDALEAACAAGGVRALVLIPTLNNPTGHVSGAARRQAIATIAERYGIFIIEDEVYRPMIEDDLPSITEMLPDLGFFVTSFTKTVLTGLRVGYLVVPPAYSIRAASILRVSSWSGTYLTAEIATRWVENGTARRLLDVQRTEARARQKIAVDILGDHIGSTHPLSFCAWLTVPPRWTEDGLVRALTNQNVAVTPSEPFIAGPGHGGGIRICLGGRLNHASLARALTTVRQTFEQLPPVYDIGSIG | not soluble
14 | SRRLGKSLGINSIPCKFCSYDCVYCQVGRTINKTIERREFYSPEDIFKSVEERIGKLNNEKIDYLTFVADGEPTLDINLSKEVEMLRDFDIPIAIITNSSLIWREDVRNDILNFDLVSFKVDSVDEKIWREINRPHKDLVLDKILEGMIAFRDNYKGELITETMILGSIKYTEESIIKTAEFLKELNPNKCYLNTPIRPPSEKYIKPPKIEVITKILAIFNEIIGKNKIKLLGKFE | not soluble
15 | MGHHHHHHSHMAAPLGGMFSGQPPGPPQAPPGLPGQASLLQAAPGAPRPSSSTLVDELESSFEACFASLVSQDYVNGTDQEEIRTGVDQCIQKFLDIARQTECFFLQKRLQLSVQKPEQVIKEDVSELRNELQRKDALVQKHLTKLRHWQQVLEDINVQHKKPADIPQGSLAYLGAGICQHPCTSEANVSKGQRQLAYEWADA | not soluble
16 | MISAGIDPGTGSYDVVAIEDGKVVFRKNIPTEEVRASPDVIVEVIEESGAEVAAGLSGYGLPVKRFSELDEVDLLLMTLNFDSERAIGLRNIIKAVKERNVNLYTVPAVIHLPTVPPWRKMNRIDIGTADKLCSAVLAVAKLSEEEELTKLNFILAEVGEGFNAFIAVRNGRIVDGMGGTTSFPGYSSLGAMDAELAYIIGEFPKKLIFSGGVKSFASEWKVNENEVTNILSEFVLKGIRAMEVSTDADFYMLSGRFAPDVLRKLRGEGKEVRLLGGFGRGKQSAQGAAIIANAIAGGEYREIVDYMRIFEAKGTLLDYITSDIMEYVRRGLKRRGD | not soluble
17 | MSGLEAKIAAIRDPDLQAELEAARGGFLFAPIVEHLLFRQRERDAARAQEGAQAEAREAMGRDRRRRDAVREVIESEPTGPENLQHLHSVLALCGLPYRDPGDARDFVREYGRNSLSLSAGRLKNPITGEMELQGLPYGPKARLVLLHLCTEAVRQRSPTIEVADSLSGFMKAMGFAVTGGERGTIGAFKEQLNRLAACSMQLGLWDGEGQASTLNVPPFRQLELWRRGDDGLVWQRTVSFHQDFYDSLIRHALPVDIRAARAFSGSARKLDLLFWTGYRLRALQRPLRLTWDNLHRQFGAENASLRSFRQAFKADLAGLLEVFPRLRIDLDEGGMLLHPADPGSLLVPPKLEHHHHHH | not soluble
18 | MGSDKIHHHHHHMKVKSVSEILIYPPDRIVGDLWIVRNWVTKRNYKVSSPTLAILLYCKIPHTVGDILDFFYEKYGIKNELIHLGLKKLMATDLLLEVKQEMDGSNEVFGLEFDNWYKHNWYMALLYHLVSYDYPFIEDYVAKQRMINYSSQEIDSNRYKEYNSQVSYDIPKATEVKIRETNTSKQKCVNFADLLTMASLGYTRVGSLRVYWNGDPLILRTSPSGGSRHPTETYIVAINVEGLESGWYHISVKDSKLEQIKIGGTDPDDLRLLFPTTYVRPDFHVDLILIFTSIFERNMYRYREPRTFRTIHMDVGHLAATTEIICEKLGYKYLVQYSANDEGIEKFLGLSPLKEGYMASMAIGN | not soluble
19 | MAHHHHHHMAANCIFCKIIKGDIPCAKVAETSKALAFMDINPLSRGHMLVIPKEHASCLHELGMEDAADVGVLLAKASRAVAGPDGSMQYNVLQNNGSLAHQEVPHVHFHIIPKTDEKTGLKIGWDTVKVASDELAEDAKRYSEAIAKI | soluble
20 | MSHGSPAPSASVSSDGEEPEIDVMPSSDEESEPIYIPKEKEPVVIRGVGNITVFGMNSRFNTEYPPELTGYIAPEELSATLSRVNSVLKRHVQTSSRWLLCGLAFCCCSIGCSMWPVLCLNRRTVLALEKCLDHENVSLYHKLGLHWSLARRPTEPSDRLTEYVLELKTLPKPALNLPD | not soluble
21 | MADLRKAARGRECQVRIPGVCNGNPETSVLAHIRLTGLCGTGTKPPDLIATIACSACHDEIDRRTHFVDAGYAKECALEGMARTQVIWLKEGVIKA | soluble
22 | MGSDKIHHHHHHMSKYDVSISVIMGVYNQNDEKVLREAVDSILNQTFKDFEFIIYDDGSQPDAALILEKIKKIDPRIVLIGQEKNHGLAFSLNACIEQARGKYIARMDADDISDPNRLKVQYDFLEKNPQYSWCGCNARLLDENGIWGTREMPEAPAEKDYLKYSPYIHPTVMYRASLFEETDGYKVSEETLLCEDYEIFMRLRQMGKRGYNIQETLFTYREDSDSYRRRDFKRGINEAKVRFENFNKLHVLFPTGWVYVFRPIIACLVPREMIYILKRMKTRKKPWKKELESELIITGK | not soluble
23 | MVELFGAVLLLFGLSDLLFRFLGLGAYAHGSRREPKVALTFDDGPSERTEALLALLARHGVKATFFLTGEKARARPDLVEAIKRAGHQVEDHGEWHRPLWLFLPWVEWRHMAQNPGRYYRPPYGLHTPFTRLFARLLGKRVVLWDLESKDWLNLPPEELAERLLFYLRPGSIVLFHDGPERTLRLLGAGPAGDAPPGVPAHHPGRPRPFAPHPEARPHPGPPGV | soluble
